In the Immune Epitope Database (IEDB) one finds Kd data, which are given here for 4 sequences.

One experiment addresses HLA-A*30:01. As to the kind of experiment: IEDB peptide-MHC binding, purified MHC/competitive/fluorescence; filed as Kd, often an IC50 or EC50 that approximates it; ≥ and ≤ were set here for values at or beyond the usual limits of such assays. To be noted: source organism: Rabbitpox virus.
For experiment [1], the target named is HLA-B*48:01. The description is as above. To be noted: source organism: Rabbitpox virus.
For experiment [2], the target named is HLA-A*02:01. The experiment can be described thus: IEDB peptide-MHC binding, purified MHC/direct/fluorescence; filed as Kd, often an IC50 or EC50 that approximates it; ≥ and ≤ were set here for values at or beyond the usual limits of such assays.
A further experiment addresses HLA-B*27:05. Described as above. To be noted: source organism: Aracatuba virus.
A further experiment concerns the target HLA-A*01:01. Described as above.
The target of experiment [3] is HLA-B*46:01. Described as above.
The target in experiment [4] is HLA-B*57:01. The description is as above.
Another experiment addresses HLA-B*40:01. Described as above.
Experiment [5] deals with HLA-A*26:02. The description is as above. Particulars: source organism: Variola virus.
Another experiment addresses HLA-B*08:01. Described as above. Particulars: source organism: Variola virus.
The target in experiment [6] is HLA-A*68:02. The experiment is described as above. Particulars: source organism: Aracatuba virus.
The target of another experiment is HLA-B*38:01. The experiment is described as above.
The target of experiment [7] is HLA-B*15:01. The description is as above.
The target in experiment [8] is HLA-B*39:01. Described as above.
The target of experiment [9] is HLA-B*18:01. The experiment is described as above.
The target in experiment [10] is HLA-A*26:01. Described as above. Particulars: source organism: Variola virus.
Experiment [11] deals with HLA-A*69:01. Described as above. To be noted: source organism: Aracatuba virus.
The target in a further experiment is HLA-B*07:02. The description is as above.
Experiment [12] concerns the target HLA-B*15:17. The description is as above. Particulars: source organism: Aracatuba virus.
A further experiment concerns the target HLA-B*08:02. Described as above. Particulars: source organism: Variola virus.
For the next experiment, the target named is HLA-B*58:01. Described as above.
Another experiment addresses HLA-A*29:02. The experiment can be described thus: IEDB peptide-MHC binding, purified MHC/competitive/fluorescence; filed as Kd, often an IC50 or EC50 that approximates it; ≥ and ≤ were set here for values at or beyond the usual limits of such assays.
Experiment [13] deals with HLA-A*02:01. Described as above.
The target of another experiment is HLA-A*02:19. The experiment is described as above.
Experiment [14] deals with HLA-B*46:01. Described as above.
For experiment [15], the target named is HLA-B*57:01. The description is as above.
The target in a further experiment is HLA-B*51:01. The description is as above.
A further experiment has as its target HLA-A*03:01. Described as above.
The target of experiment [16] is HLA-B*15:01. The description is as above.
The target of the next experiment is HLA-A*02:12. Described as above. To be noted: source organism: Giardia lamblia ATCC 50803.
For the next experiment, the target named is HLA-B*27:03. Described as above.
Experiment [17] concerns the target HLA-B*39:01. The description is as above. To be noted: source organism: Giardia lamblia ATCC 50803.
Experiment [18] has as its target HLA-B*18:01. The experiment is described as above.
Experiment [19] has as its target HLA-A*26:01. The description is as above.
The target in another experiment is HLA-A*23:01. Described as above.
Another experiment addresses HLA-A*24:03. Described as above.
Experiment [20] concerns the target HLA-A*26:02. Described as above. To be noted: source organism: Zaire ebolavirus.
Experiment [21] deals with HLA-A*68:02. The description is as above.
For another experiment, the target named is HLA-B*08:03. As to the kind of experiment: IEDB peptide-MHC binding, purified MHC/direct/fluorescence; filed as Kd, often an IC50 or EC50 that approximates it; ≥ and ≤ were set here for values at or beyond the usual limits of such assays. To be noted: source organism: Ravn virus - Ravn, Kenya, 1987.
The target in experiment [22] is HLA-B*48:01. The description is as above. To be noted: source organism: Ebola virus - Mayinga, Zaire, 1976.
In another experiment the target is HLA-A*02:16. The experiment can be described thus: IEDB peptide-MHC binding, purified MHC/competitive/fluorescence; filed as Kd, often an IC50 or EC50 that approximates it; ≥ and ≤ were set here for values at or beyond the usual limits of such assays. To be noted: source organism: Bacillus anthracis str. A0488.
Experiment [23] addresses HLA-A*69:01. Described as above. To be noted: source organism: Bacillus anthracis str. A0488.
Experiment [24] deals with HLA-B*15:17. The experiment is described as above. Particulars: source organism: Bacillus anthracis str. A0488.
[25] abbreviates: source organism: Aracatuba virus.
Where [26] appears, read: source organism: Giardia lamblia ATCC 50803.
Setting [27] is: source organism: Zaire ebolavirus.
The mark [28] stands for this setting: source organism: Ebola virus - Mayinga, Zaire, 1976.
Setting [29] is: source organism: Bacillus anthracis str. A0488.

In the case of YKEPNSIIL, the Kd (commonly the constant that tells how readily two partners part at equilibrium) in the experiment with HLA-A*30:01 is no less than 20 µM; with HLA-B*48:01 [1], 0.224 µM; in the experiment with HLA-A*02:01 [2] (setting [25]) it was no less than 20 µM; in the experiment with HLA-B*27:05, no less than 20 µM; with HLA-A*01:01 (setting [25]), no less than 20 µM; in the experiment with HLA-B*46:01 [3] (setting [25]), no less than 20 µM. Moreover, the Kd is no less than 20 µM with HLA-B*57:01 [4] (setting [25]); no less than 20 µM in the experiment with HLA-B*40:01 (setting [25]); no less than 20 µM with HLA-A*26:02 [5]; no less than 20 µM with HLA-B*08:01; no less than 20 µM with HLA-A*68:02 [6]; 0.617 µM with HLA-B*38:01 (source organism: Variola virus). Moreover, the Kd with HLA-B*15:01 [7] (setting [25]) is no less than 20 µM; in the experiment with HLA-B*39:01 [8] (setting [25]), 0.0305 µM; with HLA-B*18:01 [9] (setting [25]), no less than 20 µM; with HLA-A*26:01 [10] it was no less than 20 µM; in the experiment with HLA-A*69:01 [11], no less than 20 µM; in the experiment with HLA-B*07:02 (setting [25]), no less than 20 µM. In addition, the Kd with HLA-B*15:17 [12], with HLA-B*08:02 and with HLA-B*58:01 (setting [25]) was no less than 20 µM throughout.

For the sequence STTTCEAGV, the Kd with HLA-A*29:02 (setting [26]), with HLA-A*02:01 [13] (setting [26]), with HLA-A*02:19 (setting [26]), with HLA-B*46:01 [14] (setting [26]), with HLA-B*57:01 [15] (setting [26]) and with HLA-B*51:01 (setting [26]) was no less than 20 µM throughout. The Kd with HLA-A*03:01 (setting [26]) is no less than 20 µM; in the experiment with HLA-B*15:01 [16] (setting [26]), no less than 20 µM; with HLA-A*02:12 it was 0.284 µM; with HLA-B*27:03 (setting [26]), no less than 20 µM; in the experiment with HLA-B*39:01 [17], no less than 20 µM; with HLA-B*18:01 [18] (setting [26]) it was no less than 20 µM. Further, the Kd with HLA-A*26:01 [19] (setting [26]), with HLA-A*23:01 (setting [26]) and in the experiment with HLA-A*24:03 (setting [26]) was no less than 20 µM in each case.

For SRTPSGKRL, the Kd is 2.8 µM with HLA-A*26:02 [20]; 3.11 µM with HLA-A*68:02 [21] (setting [27]); 2.12 µM in the experiment with HLA-A*26:01 [19] (setting [27]); no less than 20 µM with HLA-A*02:01 [2] (setting [28]); no less than 20 µM in the experiment with HLA-A*01:01 (setting [28]); no less than 20 µM with HLA-B*08:03. In addition, the Kd is no less than 20 µM in the experiment with HLA-B*46:01 [3] (setting [28]); no less than 20 µM with HLA-B*57:01 [4] (setting [28]); no less than 20 µM with HLA-B*40:01 (setting [28]); no less than 20 µM with HLA-B*38:01 (source organism: Ravn virus - Ravn, Kenya, 1987); no less than 20 µM with HLA-B*15:01 [7] (setting [28]); no less than 20 µM in the experiment with HLA-B*39:01 [8] (setting [28]). Besides, the Kd in the experiment with HLA-B*18:01 [9] (setting [28]), with HLA-B*07:02 (setting [28]), in the experiment with HLA-B*48:01 [22] and with HLA-B*58:01 (setting [28]) was no less than 20 µM in each case.

For the sequence KQGDVFYTA, the Kd with HLA-A*29:02 (setting [29]), in the experiment with HLA-A*02:01 [13] (setting [29]), in the experiment with HLA-A*02:19 (setting [29]), with HLA-B*46:01 [14] (setting [29]), with HLA-B*57:01 [15] (setting [29]) and with HLA-B*51:01 (setting [29]) was no less than 20 µM throughout. Besides, the Kd is no less than 20 µM with HLA-A*03:01 (setting [29]); no less than 20 µM with HLA-A*68:02 [21] (setting [29]); 0.0514 µM in the experiment with HLA-A*02:16; no less than 20 µM with HLA-B*15:01 [16] (setting [29]); no less than 20 µM in the experiment with HLA-B*27:03 (setting [29]); no less than 20 µM in the experiment with HLA-B*18:01 [18] (setting [29]). For the same sequence, the Kd with HLA-A*26:01 [19] (setting [29]), with HLA-A*69:01 [23], with HLA-B*15:17 [24], with HLA-A*23:01 (setting [29]) and with HLA-A*24:03 (setting [29]) was no less than 20 µM throughout.
